Reference: patent US20200362033A1

Molecular target: human CD147 endogenously expressed on human cancer cell lines (human), P35613
Test: cell-based or functional assay

ratio of the phosphorylated p38MAPK signal to the detected p38MAPK signal, HepG2 cells, 10 ug/ml, 15 minutes (fold of the human IgG treated group) | Binder
> 2 | #84H1L2hIgG2 (antibody) heavy: EVQLVESGGGLVQPGGSLRLSCAASGFTFSNYYMAWVRQAPGKGLEWVSTITTSGSRPYYADSVKGRFTISRDNSKNTLYLQMNSLRAEDTAVYYCARHIYYYDGYPFAYWGQGTLVTVSSASTKGPSVFPLAPCSRSTSESTAALGCLVKDYFPEPVTVSWNSGALTSGVHTFPAVLQSSGLYSLSSVVTVPSSNFGTQTYTCNVDHKPSNTKVDKTVERKCCVECPPCPAPPVAGPSVFLFPPKPKDTLMISRTPEVTCVVVDVSHEDPEVQFNWYVDGVEVHNAKTKPREEQFNSTFRVVSVLTVVHQDWLNGKEYKCKVSNKGLPAPIEKTISKTKGQPREPQVYTLPPSREEMTKNQVSLTCLVKGFYPSDIAVEWESNGQPENNYKTTPPMLDSDGSFFLYSKLTVDKSRWQQGNVFSCSVMHEALHNHYTQKSLSLSPGK light: DVQMTQSPSSLSASVGDRVTITCKASKSISNNLAWYQQKPGKANKLLIHSGSTLQSGTPSRFSGSGSGTDFTLTISSLQPEDFATYYCQQYNEYPLTFGQGTKVEIKRTVAAPSVFIFPPSDEQLKSGTASVVCLLNNFYPREAKVQWKVDNALQSGNSQESVTEQDSKDSTYSLSSTLTLSKADYEKHKVYACEVTHQGLSSPVTKSFNRGEC
> 2 | #131H2L2hIgG2 (antibody) heavy: QVQLVESGGGVVQPGRSLRLSCAASGFTFNNYWMTWVRQAPGKGLEWVASITKAGGSTYYADSVKGRFTISRDNSKSTLYLQMNSLRAEGTAVYYCTRELGEFYVMDAWGQGTTVTVSSASTKGPSVFPLAPCSRSTSESTAALGCLVKDYFPEPVTVSWNSGALTSGVHTFPAVLQSSGLYSLSSVVTVPSSNFGTQTYTCNVDHKPSNTKVDKTVERKCCVECPPCPAPPVAGPSVFLFPPKPKDTLMISRTPEVTCVVVDVSHEDPEVQFNWYVDGVEVHNAKTKPREEQFNSTFRVVSVLTVVHQDWLNGKEYKCKVSNKGLPAPIEKTISKTKGQPREPQVYTLPPSREEMTKNQVSLTCLVKGFYPSDIAVEWESNGQPENNYKTTPPMLDSDGSFFLYSKLTVDKSRWQQGNVFSCSVMHEALHNHYTQKSLSLSPGK light: DVQMTQSPSSLSASVGDRVTITCKASKSINTYLAWYQEKPGKTNKLLIYSGSTLQSGTPSRFSGSGSGTDFTLTISSLQPEDFATYYCQQHNEYPFTFGQGTKLEIKRTVAAPSVFIFPPSDEQLKSGTASVVCLLNNFYPREAKVQWKVDNALQSGNSQESVTEQDSKDSTYSLSSTLTLSKADYEKHKVYACEVTHQGLSSPVTKSFNRGEC
> 2 | #101H1L2hIgG2 (antibody) heavy: EVQLVESGGGLVQPGRSLRLSCAASGFTFSDYYMAWVRQAPGKGLEWVATISYDGSNTYYRDSVKGRFTISRDNSKSTLYLQMNSLRAGDTAVYYCARFYNNYYFDYWGQGTLVTVSSASTKGPSVFPLAPCSRSTSESTAALGCLVKDYFPEPVTVSWNSGALTSGVHTFPAVLQSSGLYSLSSVVTVPSSNFGTQTYTCNVDHKPSNTKVDKTVERKCCVECPPCPAPPVAGPSVFLFPPKPKDTLMISRTPEVTCVVVDVSHEDPEVQFNWYVDGVEVHNAKTKPREEQFNSTFRVVSVLTVVHQDWLNGKEYKCKVSNKGLPAPIEKTISKTKGQPREPQVYTLPPSREEMTKNQVSLTCLVKGFYPSDIAVEWESNGQPENNYKTTPPMLDSDGSFFLYSKLTVDKSRWQQGNVFSCSVMHEALHNHYTQKSLSLSPGK light: DIQMTQSPSSLSASVGDRVTINCKASQNLYKNLAWYQQKPGKAPKLLIDNANSLQTGIPSRFSGSGSGTDFTLTISSLQPEDFATYFCQQYYSGSYTFGQGTKVEIKRTVAAPSVFIFPPSDEQLKSGTASVVCLLNNFYPREAKVQWKVDNALQSGNSQESVTEQDSKDSTYSLSSTLTLSKADYEKHKVYACEVTHQGLSSPVTKSFNRGEC
